From the supplement of paper PMC5998384 come the findings set out here.

For data set [1], the system named is HeLa Kyoto. As to the kind of experiment: solubility in G1/S (NP-40 vs SDS abundance) (log2 ratio); higher = more soluble. To be noted: cell cycle stage: G1/S.
The subject of data set [2] is HeLa Kyoto. The data set is described as follows: melting temperature (median over replicates), in situ; higher = more thermally stable.
Data set [3] deals with HeLa Kyoto. The data set is described as follows: solubility change mitosis vs G1/S (difference of NP-40 vs SDS log2 ratios) (log2 ratio difference); higher = more soluble in mitosis.
Data set [4] has as its system HeLa Kyoto. The data set is described as follows: thermal stability score vs G1/S (z-score of summed log2 fold changes over temperatures); higher = more thermally stable than in G1/S.
The mark [5] stands for this setting: cell cycle stage: early G1 (4.5 h after nocodazole release).
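For melting temperature (median over replicates), in situ in this document: HeLa Kyoto cells synchronized by double thymidine or nocodazole block, proteins quantified by TMT10plex mass spectrometry, three independent biological replicates.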
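For solubility change mitosis vs G1/S (difference of NP-40 vs SDS log2 ratios) in this document: synchronized HeLa Kyoto cells (double thymidine block for G1/S, nocodazole release for mitosis), protein amounts in NP-40 versus SDS lysates quantified by mass spectrometry, three biological replicates.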
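For solubility in G1/S (NP-40 vs SDS abundance) in this document: HeLa Kyoto cells arrested at G1/S by double thymidine block, proteins quantified by TMT10plex mass spectrometry in mild NP-40 versus SDS extracts, three biological replicates.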
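For thermal stability score vs G1/S (z-score of summed log2 fold changes over temperatures) in this document: synchronized HeLa Kyoto cells, proteins quantified by TMT10plex mass spectrometry, three biological replicates, mitosis taken 0.5 h after nocodazole release, G1/S directly after double thymidine block.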

Turning to “MSRPSSVSPRQPAPGGGGGGGPSPCGPGGGGRAKGLKDIRIDEEVKIAVNIALERFRYGDQREMEFPSSLTSTERAFIHRLSQSLGLVSKSKGKGANRYLTVKKKDGSETAHAMMTCNLTHNTKHAVRSLIQRFPVTNKERTELLPKTERGNVFAVEAENREMSKTSGRLNNGIPQIPVKRGESEFDSFRQSLPVFEKQEEIVKIIKENKVVLIVGETGSGKTTQIPQFLLDDCFKNGIPCRIFCTQPRRLAAIAVAERVAAERRERIGQTIGYQIRLESRVSPKTLLTFCTNGVLLRTLMAGDSTLSTVTHVIVDEVHERDRFSDFLLTKLRDLLQKHPTLKLILSSAALDVNLFIRYFGSCPVIYIQGRPFEVKEMFLEDILRTTGYTNKEMLKYKKEKQQEEKQQTTLTEWYSAQENSFKPESQRQRTVLNVTDEYDLLDDGGDAVFSQLTEKDVNCLEPWLIKEMDACLSDIWLHKDIDAFAQVFHLILTENVSVDYRHSETSATALMVAAGRGFASQVEQLISMGANVHSKASNGWMALDWAKHFGQTEIVDLLESYSATLEFGNLDESSLVQTNGSDLSAEDRELLKAYHHSFDDEKVDLDLIMHLLYNICHSCDAGAVLIFLPGYDEIVGLRDRILFDDKRFADSTHRYQVFMLHSNMQTSDQKKVLKNPPAGVRKIILSTNIAETSITVNDVVFVIDSGKVKEKSFDALNFVTMLKMVWISKASAIQRKGRAGRCRPGICFRLFSRLRFQNMLEFQTPELLRMPLQELCLHTKLLAPVNCPIADFLMKAPEPPPALIVRNAVQMLKTIDAMDTWEDLTELGYHLADLPVEPHLGKMVLCAVVLKCLDPILTIACTLAYRDPFVLPTQASQKRAAMLCRKRFTAGAFSDHMALLRAFQAWQKARSDGWERAFCEKNFLSQATMEIIIGMRTQLLGQLRASGFVRARGGGDIRDVNTNSENWAVVKAALVAGMYPNLVHVDRENLVLTGPKEKKVRFHPASVLSQPQYKKIPPANGQAAAIKALPTDWLIYDEMTRAHRIANIRCCSAVTPVTILVFCGPARLASNALQEPSSFRVDGIPNDSSDSEMEDKTTANLAALKLDEWLHFTLEPEAASLLLQLRQKWHSLFLRRMRAPSKPWSQVDEATIRAIIAVLSTEEQSAGLQQPSGIGQRPRPMSSEELPLASSWRSNNSRKSSADTEFSDECTTAERVLMKSPSPALHPPQKYKDRGILHPKRGTEDRSDQSSLKSTDSSSYPSPCASPSPPSSGKGSKSPSPRPNMPVRYFIMKSSNLRNLEISQQKGIWSTTPSNERKLNRAFWESSIVYLVFSVQGSGHFQGFSRMSSEIGREKSQDWGSAGLGGVFKVEWIRKESLPFQFAHHLLNPWNDNKKVQISRDGQELEPLVGEQLLQLWERLPLGEKNTTD [YTHDC2]”, the “solubility in G1/S (log2)” value with HeLa Kyoto [1] was -0.57. Moreover, the melting temperature in the data set with HeLa Kyoto [2] (cell cycle stage: G1/S) is 50.2 °C; in the data set with HeLa Kyoto [2] (cell cycle stage: mitosis), 50 °C. In addition, in the data set with HeLa Kyoto [3], the “solubility change mitosis (log2)” value was 0.163. Also, the thermal stability score in the data set with HeLa Kyoto [4] (setting [5]) is -0.356; with HeLa Kyoto [4] (cell cycle stage: mitosis) it was 0.243.

Take “MSRRRHSDENDGGQPHKRRKTSDANETEDHLESLICKVGEKSACSLESNLEGLAGVLEADLPNYKSKILRLLCTVARLLPEKLTIYTTLVGLLNARNYNFGGEFVEAMIRQLKESLKANNYNEAVYLVRFLSDLVNCHVIAAPSMVAMFENFVSVTQEEDVPQVRRDWYVYAFLSSLPWVGKELYEKKDAEMDRIFANTESYLKRRQKTHVPMLQVWTADKPHPQEEYLDCLWAQIQKLKKDRWQERHILRPYLAFDSILCEALQHNLPPFTPPPHTEDSVYPMPRVIFRMFDYTDDPEGPVMPGSHSVERFVIEENLHCIIKSHWKERKTCAAQLVSYPGKNKIPLNYHIVEVIFAELFQLPAPPHIDVMYTTLLIELCKLQPGSLPQVLAQATEMLYMRLDTMNTTCVDRFINWFSHHLSNFQFRWSWEDWSDCLSQDPESPKPKFVREVLEKCMRLSYHQRILDIVPPTFSALCPANPTCIYKYGDESSNSLPGHSVALCLAVAFKSKATNDEIFSILKDVPNPNQDDDDDEGFSFNPLKIEVFVQTLLHLAAKSFSHSFSALAKFHEVFKTLAESDEGKLHVLRVMFEVWRNHPQMIAVLVDKMIRTQIVDCAAVANWIFSSELSRDFTRLFVWEILHSTIRKMNKHVLKIQKELEEAKEKLARQHKRRSDDDDRSSDRKDGVLEEQIERLQEKVESAQSEQKNLFLVIFQRFIMILTEHLVRCETDGTSVLTPWYKNCIERLQQIFLQHHQIIQQYMVTLENLLFTAELDPHILAVFQQFCALQA [NCBP1]”: the “solubility in G1/S (log2)” value with HeLa Kyoto [1] is -0.297. The values for the melting temperature with HeLa Kyoto [2] (cell cycle stage: G1/S) and in the data set with HeLa Kyoto [2] (cell cycle stage: mitosis) were 50 °C and 50.4 °C, respectively. In addition, in the data set with HeLa Kyoto [3], the “solubility change mitosis (log2)” value was -0.144. Besides, the thermal stability score came out at 0.234 in the data set on HeLa Kyoto [4] (setting [5]) and 0.31 with HeLa Kyoto [4] (cell cycle stage: mitosis).

Consider “MSRYLRPPNTSLFVRNVADDTRSEDLRREFGRYGPIVDVYVPLDFYTRRPRGFAYVQFEDVRDAEDALHNLDRKWICGRQIEIQFAQGDRKTPNQMKAKEGRNVYSSSRYDDYDRYRRSRSRSYERRRSRSRSFDYNYRRSYSPRNSRPTGRPRRSRSHSDNDRFKHRNRSFSRSKSNSRSRSKSQPKKEMKAKSRSRSASHTKTRGTSKTDSKTHYKSGSRYEKESRKKEPPRSKSQSRSQSRSRSKSRSRSWTSPKSSGH [SRSF10]”, for which the “solubility in G1/S (log2)” value with HeLa Kyoto [1] is -0.696. Besides, the melting temperature was 49.7 °C in the data set with HeLa Kyoto [2] (cell cycle stage: G1/S) and 50.2 °C in the data set with HeLa Kyoto [2] (cell cycle stage: mitosis). For the same sequence, in the data set on HeLa Kyoto [3], the “solubility change mitosis (log2)” value is 0.534. In addition, the thermal stability score with HeLa Kyoto [4] (setting [5]) is 0.817; in the data set with HeLa Kyoto [4] (cell cycle stage: mitosis), -0.653.

With “MSSAPRSPTPRPRRMKKDESFLGKLGGTLARKRRAREVSDLQEEGKNAINSPMSPALVDVHPEDTQLEENEERTMIDPTSKEDPKFKELVKVLLDWINDVLVEERIIVKQLEEDLYDGQVLQKLLEKLAGCKLNVAEVTQSEIGQKQKLQTVLEAVHDLLRPRGWALRWSVDSIHGKNLVAILHLLVSLAMHFRAPIRLPEHVTVQVVVVRKREGLLHSSHISEELTTTTEMMMGRFERDAFDTLFDHAPDKLSVVKKSLITFVNKHLNKLNLEVTELETQFADGVYLVLLMGLLEDYFVPLHHFYLTPESFDQKVHNVSFAFELMLDGGLKKPKARPEDVVNLDLKSTLRVLYNLFTKYKNVE [PARVB]”, in the data set with HeLa Kyoto [1], the “solubility in G1/S (log2)” value worked out at 0.0443. In the data set on HeLa Kyoto [2] (cell cycle stage: mitosis), this sequence registered a melting temperature of 50.4 °C. Also, the “solubility change mitosis (log2)” value in the data set with HeLa Kyoto [3] is -0.137. Besides, the thermal stability score worked out at 0.418 in the data set with HeLa Kyoto [4] (setting [5]) and 0.496 in the data set with HeLa Kyoto [4] (cell cycle stage: mitosis).

“MSSIGTGYDLSASTFSPDGRVFQVEYAMKAVENSSTAIGIRCKDGVVFGVEKLVLSKLYEEGSNKRLFNVDRHVGMAVAGLLADARSLADIAREEASNFRSNFGYNIPLKHLADRVAMYVHAYTLYSAVRPFGCSFMLGSYSVNDGAQLYMIDPSGVSYGYWGCAIGKARQAAKTEIEKLQMKEMTCRDIVKEVAKIIYIVHDEVKDKAFELELSWVGELTNGRHEIVPKDIREEAEKYAKESLKEEDESDDDNM [PSMA3]”: in the data set on HeLa Kyoto [1], the “solubility in G1/S (log2)” value worked out at 0.204. In addition, the melting temperature in the data set with HeLa Kyoto [2] (cell cycle stage: G1/S) is 60.7 °C; with HeLa Kyoto [2] (cell cycle stage: mitosis), 56.7 °C. For the same sequence, the “solubility change mitosis (log2)” value in the data set with HeLa Kyoto [3] was -0.0697. Besides, the figures for the thermal stability score with HeLa Kyoto [4] (setting [5]) and in the data set with HeLa Kyoto [4] (cell cycle stage: mitosis) were -2.57 and -3.19, respectively.
